Paper PMC7056357
Where two headings read alike, the source gives them in different places.

Tests used:
CD4-mRFP (human) = CD4-mRFP (human) (UniProt P01730); assay: multicolour TIRF-dSTORM with interaction factor analysis
CCR5-mTFP1 = CCR5-mTFP1 (UniProt P51681)
[1] = target: T1, CXCR4-mTFP1 (human), P61073; details: remark: other sources report otherwise
T1 chain: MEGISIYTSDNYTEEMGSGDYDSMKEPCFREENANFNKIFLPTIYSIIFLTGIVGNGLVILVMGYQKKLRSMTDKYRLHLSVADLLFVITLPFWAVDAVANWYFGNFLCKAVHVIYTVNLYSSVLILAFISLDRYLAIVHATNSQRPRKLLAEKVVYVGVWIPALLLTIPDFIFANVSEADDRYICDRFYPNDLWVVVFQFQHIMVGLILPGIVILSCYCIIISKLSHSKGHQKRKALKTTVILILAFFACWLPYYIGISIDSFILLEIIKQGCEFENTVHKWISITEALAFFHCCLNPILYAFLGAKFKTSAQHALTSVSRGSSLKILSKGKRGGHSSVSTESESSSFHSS

[2] = target: T1, CXCR4-mTFP1 (human), P61073; assay: number and brightness; details: remark: other sources report otherwise
[3] = target: T2, CXCR4-eYFP (human), P61073; assay: multicolour TIRF-dSTORM with interaction factor analysis; details: remark: other sources report otherwise
T2 chain: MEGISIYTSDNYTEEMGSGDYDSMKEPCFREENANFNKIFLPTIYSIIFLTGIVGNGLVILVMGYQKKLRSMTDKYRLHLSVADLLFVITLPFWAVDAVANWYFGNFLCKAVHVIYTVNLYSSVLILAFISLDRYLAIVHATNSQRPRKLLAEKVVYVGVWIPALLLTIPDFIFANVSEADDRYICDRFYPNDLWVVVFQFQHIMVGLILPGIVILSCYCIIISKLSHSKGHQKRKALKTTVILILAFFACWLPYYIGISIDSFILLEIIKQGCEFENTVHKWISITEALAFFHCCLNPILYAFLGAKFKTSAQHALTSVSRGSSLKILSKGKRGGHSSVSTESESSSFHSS

UniProt P51681, sequence (P51681 whole entry): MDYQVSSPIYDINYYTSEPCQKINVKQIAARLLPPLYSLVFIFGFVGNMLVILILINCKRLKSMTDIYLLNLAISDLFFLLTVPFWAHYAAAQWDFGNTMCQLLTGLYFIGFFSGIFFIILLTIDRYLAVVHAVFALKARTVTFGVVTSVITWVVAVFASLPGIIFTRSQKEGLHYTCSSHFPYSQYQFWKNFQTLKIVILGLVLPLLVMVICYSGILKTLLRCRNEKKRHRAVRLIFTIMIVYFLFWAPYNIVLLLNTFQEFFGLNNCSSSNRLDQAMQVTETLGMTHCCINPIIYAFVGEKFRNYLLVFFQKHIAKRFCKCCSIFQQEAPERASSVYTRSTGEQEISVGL

Work on “HIV-1 JR-FL Env on HIV_(JR-FL) virions (complex)” yielded a probability of 3 CD4 molecules engaged with 1 Env spike (CD4-mRFP (human)) of 0.36, a probability of 4 CD4 molecules engaged with 1 Env spike (CD4-mRFP (human)) of 0.1 and a CCR5 molecules bound to a single Env trimer (CCR5-mTFP1) of 2.

B1: CXCR4-mTFP1, P61073 1-352 (receptor)
chain: MEGISIYTSDNYTEEMGSGDYDSMKEPCFREENANFNKIFLPTIYSIIFLTGIVGNGLVILVMGYQKKLRSMTDKYRLHLSVADLLFVITLPFWAVDAVANWYFGNFLCKAVHVIYTVNLYSSVLILAFISLDRYLAIVHATNSQRPRKLLAEKVVYVGVWIPALLLTIPDFIFANVSEADDRYICDRFYPNDLWVVVFQFQHIMVGLILPGIVILSCYCIIISKLSHSKGHQKRKALKTTVILILAFFACWLPYYIGISIDSFILLEIIKQGCEFENTVHKWISITEALAFFHCCLNPILYAFLGAKFKTSAQHALTSVSRGSSLKILSKGKRGGHSSVSTESESSSFHSS
In the case of B1, the stoichiometry N [1] is reported as 2 and the stoichiometry N [2] is reported as 2.

B2: CXCR4-eYFP, P61073 1-352 (receptor)
chain: MEGISIYTSDNYTEEMGSGDYDSMKEPCFREENANFNKIFLPTIYSIIFLTGIVGNGLVILVMGYQKKLRSMTDKYRLHLSVADLLFVITLPFWAVDAVANWYFGNFLCKAVHVIYTVNLYSSVLILAFISLDRYLAIVHATNSQRPRKLLAEKVVYVGVWIPALLLTIPDFIFANVSEADDRYICDRFYPNDLWVVVFQFQHIMVGLILPGIVILSCYCIIISKLSHSKGHQKRKALKTTVILILAFFACWLPYYIGISIDSFILLEIIKQGCEFENTVHKWISITEALAFFHCCLNPILYAFLGAKFKTSAQHALTSVSRGSSLKILSKGKRGGHSSVSTESESSSFHSS
Work on B2 yielded a stoichiometry N [3] of 2.
